Test [1] concerns the target T1, IL-18 receptors on HEK-Blue IL-18 reporter cells (UniProt Q13478 19-541; O95256 20-599, limits assumed).
T1 sequence (looked up) 1: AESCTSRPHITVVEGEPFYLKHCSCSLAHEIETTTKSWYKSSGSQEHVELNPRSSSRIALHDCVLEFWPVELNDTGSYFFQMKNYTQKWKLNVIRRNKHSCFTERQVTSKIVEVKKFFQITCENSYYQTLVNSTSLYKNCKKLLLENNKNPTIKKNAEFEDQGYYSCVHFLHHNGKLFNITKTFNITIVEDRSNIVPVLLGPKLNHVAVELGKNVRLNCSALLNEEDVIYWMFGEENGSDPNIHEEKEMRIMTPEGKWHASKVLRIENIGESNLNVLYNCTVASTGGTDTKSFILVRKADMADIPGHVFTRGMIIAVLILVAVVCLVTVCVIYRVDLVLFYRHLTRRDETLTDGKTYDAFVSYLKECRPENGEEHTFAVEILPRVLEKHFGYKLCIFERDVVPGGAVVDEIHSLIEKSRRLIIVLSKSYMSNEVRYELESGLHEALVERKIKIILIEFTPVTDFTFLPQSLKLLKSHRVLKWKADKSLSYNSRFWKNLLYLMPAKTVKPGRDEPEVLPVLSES
T1 sequence (looked up) 2: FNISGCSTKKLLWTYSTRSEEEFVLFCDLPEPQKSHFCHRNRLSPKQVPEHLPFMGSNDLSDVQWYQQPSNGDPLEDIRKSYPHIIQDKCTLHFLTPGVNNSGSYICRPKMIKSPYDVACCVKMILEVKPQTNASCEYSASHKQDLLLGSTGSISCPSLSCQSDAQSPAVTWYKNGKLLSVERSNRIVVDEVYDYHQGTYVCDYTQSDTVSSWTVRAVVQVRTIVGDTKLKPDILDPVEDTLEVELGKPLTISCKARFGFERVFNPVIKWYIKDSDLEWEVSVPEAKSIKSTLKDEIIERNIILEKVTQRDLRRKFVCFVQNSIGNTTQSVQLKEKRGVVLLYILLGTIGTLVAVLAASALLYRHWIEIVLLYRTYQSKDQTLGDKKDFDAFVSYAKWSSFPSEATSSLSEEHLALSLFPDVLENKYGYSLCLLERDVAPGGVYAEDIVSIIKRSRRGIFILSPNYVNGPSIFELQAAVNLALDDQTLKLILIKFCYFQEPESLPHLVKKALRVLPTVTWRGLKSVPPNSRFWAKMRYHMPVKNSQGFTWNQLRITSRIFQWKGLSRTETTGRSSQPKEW
Put plainly: cell-based or functional assay.

In test [2] the target is T2, interleukin 18 binding protein (IL-18BP) (UniProt O95998 31-194).
T2 sequence (looked up): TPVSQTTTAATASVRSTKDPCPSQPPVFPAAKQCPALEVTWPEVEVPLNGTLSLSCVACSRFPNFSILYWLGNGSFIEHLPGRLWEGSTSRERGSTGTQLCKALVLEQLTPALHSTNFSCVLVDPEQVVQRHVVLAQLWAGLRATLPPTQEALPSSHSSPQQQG
Put plainly: cell-based or functional assay.

B1: IL-18 variant K53Y, S55G, Q56H (ligand)
chain: YFGKLESKLSVIRNLNDQVLFIDQGNRPLFEDMTDSDMRDNAPRTIFIISMYYDGHPRGMAVTISVKSEKISTLSSENKIISFKEMNPPDNIKDTKSDIIFFQRSVPGHDNKMQFESSSYEGYFLASEKERDLFKLILKKEDELGDRSIMFTVQNED
On to B1, for which, in test [1], the “HEK-Blue activity, No BP, DF-10000” value is 0.26; the “HEK-Blue activity, No BP, DF-100,000” value came out at 0.15; the “HEK-Blue activity, No BP, DF-1,000,000” value was 0.11. In test [2], the “HEK-Blue activity, +100 nM BP, DF-10000” value stood at 0.3; the “HEK-Blue activity, +100 nM BP, DF-100,000” value worked out at 0.21; the “HEK-Blue activity, +100 nM BP, DF-1,000,000” value stood at 0.18; the “Ratio (-BP/+BP), DF-10000” value is 0.86. Also, in test [2], the “Ratio (-BP/+BP), DF-100,000” value came to 0.7 and the “Ratio (-BP/+BP), DF-1,000,000” value amounted to 0.63.

B2: IL-18 variant K53V, S55Q (ligand)
chain: YFGKLESKLSVIRNLNDQVLFIDQGNRPLFEDMTDSDMRDNAPRTIFIISMYVDQQPRGMAVTISVKSEKISTLSSENKIISFKEMNPPDNIKDTKSDIIFFQRSVPGHDNKMQFESSSYEGYFLASEKERDLFKLILKKEDELGDRSIMFTVQNED
B2: in test [1], the “HEK-Blue activity, No BP, DF-10000” value worked out at 0.2; the “HEK-Blue activity, No BP, DF-100,000” value is 0.14; the “HEK-Blue activity, No BP, DF-1,000,000” value amounted to 0.11. For the same molecule, in test [2], the “HEK-Blue activity, +100 nM BP, DF-10000” value stood at 0.2; the “HEK-Blue activity, +100 nM BP, DF-100,000” value came out at 0.17; the “HEK-Blue activity, +100 nM BP, DF-1,000,000” value was 0.13; the “Ratio (-BP/+BP), DF-10000” value is 1. Further, in test [2], the “Ratio (-BP/+BP), DF-100,000” value turned out to be 0.81 and the “Ratio (-BP/+BP), DF-1,000,000” value was 0.88.

B3: IL-18 variant K53D, S55Q, P107M (ligand)
chain: YFGKLESKLSVIRNLNDQVLFIDQGNRPLFEDMTDSDMRDNAPRTIFIISMYDDQQPRGMAVTISVKSEKISTLSSENKIISFKEMNPPDNIKDTKSDIIFFQRSVMGHDNKMQFESSSYEGYFLASEKERDLFKLILKKEDELGDRSIMFTVQNED
On to B3, for which, in test [1], the “HEK-Blue activity, No BP, DF-10000” value is 0.19; the “HEK-Blue activity, No BP, DF-100,000” value is 0.13; the “HEK-Blue activity, No BP, DF-1,000,000” value stood at 0.13. In addition, in test [2], the “HEK-Blue activity, +100 nM BP, DF-10000” value was 0.22; the “HEK-Blue activity, +100 nM BP, DF-100,000” value came out at 0.14; the “HEK-Blue activity, +100 nM BP, DF-1,000,000” value amounted to 0.13; the “Ratio (-BP/+BP), DF-10000” value came out at 0.85. Further, in test [2], the “Ratio (-BP/+BP), DF-100,000” value turned out to be 0.97 and the “Ratio (-BP/+BP), DF-1,000,000” value is 1.02.

B4: IL-18 variant S7Y, K53H, S55M (ligand)
chain: YFGKLEYKLSVIRNLNDQVLFIDQGNRPLFEDMTDSDMRDNAPRTIFIISMYHDMQPRGMAVTISVKSEKISTLSSENKIISFKEMNPPDNIKDTKSDIIFFQRSVPGHDNKMQFESSSYEGYFLASEKERDLFKLILKKEDELGDRSIMFTVQNED
Turning to B4, in test [1], the “HEK-Blue activity, No BP, DF-10000” value worked out at 0.21; the “HEK-Blue activity, No BP, DF-100,000” value is 0.14; the “HEK-Blue activity, No BP, DF-1,000,000” value turned out to be 0.18. In addition, in test [2], the “HEK-Blue activity, +100 nM BP, DF-10000” value was determined as 0.16; the “HEK-Blue activity, +100 nM BP, DF-100,000” value worked out at 0.15; the “HEK-Blue activity, +100 nM BP, DF-1,000,000” value came to 0.18; the “Ratio (-BP/+BP), DF-10000” value is 1.33. Besides, in test [2], the “Ratio (-BP/+BP), DF-100,000” value is 0.94 and the “Ratio (-BP/+BP), DF-1,000,000” value is 0.98.

B5: IL-18 variant K53G, S55P, R104K, H109Y (ligand)
chain: YFGKLESKLSVIRNLNDQVLFIDQGNRPLFEDMTDSDMRDNAPRTIFIISMYGDPQPRGMAVTISVKSEKISTLSSENKIISFKEMNPPDNIKDTKSDIIFFQKSVPGYDNKMQFESSSYEGYFLASEKERDLFKLILKKEDELGDRSIMFTVQNED
As for B5, in test [1], the “HEK-Blue activity, No BP, DF-10000” value was found to be 0.21; the “HEK-Blue activity, No BP, DF-100,000” value stood at 0.12; the “HEK-Blue activity, No BP, DF-1,000,000” value was 0.1. In addition, in test [2], the “HEK-Blue activity, +100 nM BP, DF-10000” value turned out to be 0.12; the “HEK-Blue activity, +100 nM BP, DF-100,000” value is 0.09; the “HEK-Blue activity, +100 nM BP, DF-1,000,000” value was found to be 0.09; the “Ratio (-BP/+BP), DF-10000” value was found to be 1.72. For the same molecule, in test [2], the “Ratio (-BP/+BP), DF-100,000” value stood at 1.3 and the “Ratio (-BP/+BP), DF-1,000,000” value turned out to be 1.2.

B6: IL-18 variant S36E, D37E, D40R, N41G, K53Y, S55F (ligand)
chain: YFGKLESKLSVIRNLNDQVLFIDQGNRPLFEDMTDEEMRRGAPRTIFIISMYYDFQPRGMAVTISVKSEKISTLSSENKIISFKEMNPPDNIKDTKSDIIFFQRSVPGHDNKMQFESSSYEGYFLASEKERDLFKLILKKEDELGDRSIMFTVQNED
On to B6, for which, in test [1], the “HEK-Blue activity, No BP, DF-10000” value was determined as 0.2; the “HEK-Blue activity, No BP, DF-100,000” value amounted to 0.12; the “HEK-Blue activity, No BP, DF-1,000,000” value was 0.14. In addition, in test [2], the “HEK-Blue activity, +100 nM BP, DF-10000” value is 0.16; the “HEK-Blue activity, +100 nM BP, DF-100,000” value was determined as 0.19; the “HEK-Blue activity, +100 nM BP, DF-1,000,000” value is 0.14; the “Ratio (-BP/+BP), DF-10000” value stood at 1.19. Further, in test [2], the “Ratio (-BP/+BP), DF-100,000” value was 0.64 and the “Ratio (-BP/+BP), DF-1,000,000” value stood at 1.06.

B7: IL-18 variant T34L, S36V, D40A, N41S, K53G, S55W (ligand)
chain: YFGKLESKLSVIRNLNDQVLFIDQGNRPLFEDMLDVDMRASAPRTIFIISMYGDWQPRGMAVTISVKSEKISTLSSENKIISFKEMNPPDNIKDTKSDIIFFQRSVPGHDNKMQFESSSYEGYFLASEKERDLFKLILKKEDELGDRSIMFTVQNED
Consider B7, for which, in test [1], the “HEK-Blue activity, No BP, DF-10000” value amounted to 0.22; the “HEK-Blue activity, No BP, DF-100,000” value was determined as 0.19; the “HEK-Blue activity, No BP, DF-1,000,000” value is 0.14. Further, in test [2], the “HEK-Blue activity, +100 nM BP, DF-10000” value was determined as 0.12; the “HEK-Blue activity, +100 nM BP, DF-100,000” value turned out to be 0.12; the “HEK-Blue activity, +100 nM BP, DF-1,000,000” value is 0.14; the “Ratio (-BP/+BP), DF-10000” value was determined as 1.81. In test [2], the “Ratio (-BP/+BP), DF-100,000” value was determined as 1.6 and the “Ratio (-BP/+BP), DF-1,000,000” value was 0.97.

B8: IL-18 variant K53N, S55A, R104N, P107A, H109Y (ligand)
chain: YFGKLESKLSVIRNLNDQVLFIDQGNRPLFEDMTDSDMRDNAPRTIFIISMYNDAQPRGMAVTISVKSEKISTLSSENKIISFKEMNPPDNIKDTKSDIIFFQNSVAGYDNKMQFESSSYEGYFLASEKERDLFKLILKKEDELGDRSIMFTVQNED
Regarding B8, in test [1], the “HEK-Blue activity, No BP, DF-10000” value worked out at 0.21; the “HEK-Blue activity, No BP, DF-100,000” value turned out to be 0.13; the “HEK-Blue activity, No BP, DF-1,000,000” value was found to be 0.13. In test [2], the “HEK-Blue activity, +100 nM BP, DF-10000” value was 0.13; the “HEK-Blue activity, +100 nM BP, DF-100,000” value is 0.12; the “HEK-Blue activity, +100 nM BP, DF-1,000,000” value was found to be 0.14; the “Ratio (-BP/+BP), DF-10000” value came out at 1.64. Further, in test [2], the “Ratio (-BP/+BP), DF-100,000” value amounted to 1.1 and the “Ratio (-BP/+BP), DF-1,000,000” value was determined as 0.93.

B9: IL-18 variant K53D, S55Q, H109Y (ligand)
chain: YFGKLESKLSVIRNLNDQVLFIDQGNRPLFEDMTDSDMRDNAPRTIFIISMYDDQQPRGMAVTISVKSEKISTLSSENKIISFKEMNPPDNIKDTKSDIIFFQRSVPGYDNKMQFESSSYEGYFLASEKERDLFKLILKKEDELGDRSIMFTVQNED
As to B9, in test [1], the “HEK-Blue activity, No BP, DF-10000” value was 0.23; the “HEK-Blue activity, No BP, DF-100,000” value worked out at 0.2; the “HEK-Blue activity, No BP, DF-1,000,000” value turned out to be 0.13. For the same molecule, in test [2], the “HEK-Blue activity, +100 nM BP, DF-10000” value stood at 0.12; the “HEK-Blue activity, +100 nM BP, DF-100,000” value was determined as 0.15; the “HEK-Blue activity, +100 nM BP, DF-1,000,000” value was 0.1; the “Ratio (-BP/+BP), DF-10000” value turned out to be 1.94. Moreover, in test [2], the “Ratio (-BP/+BP), DF-100,000” value came out at 1.36 and the “Ratio (-BP/+BP), DF-1,000,000” value came to 1.27.

The record behind these values is US20240182536A1 (MURAL ONCOLOGY, published 2024).
